{
  "source": "paper PMC6215862",
  "about": "“AlNAC4 Transcription Factor From Halophyte Aeluropus lagopoides Mitigates Oxidative Stress by Maintaining ROS Homeostasis in Transgenic Tobacco”",
  "binders": {"B1": {"name": "NACBST (tandem NACRS, erd1 promoter) (dsDNA)", "DNA 1": "GGCCGCACACGCATGTGACACGCATGTGACACGCATGTGACACGCATGTGA", "DNA 2": "CTAGTCACATGCGTGTCACATGCGTGTCACATGCGTGTCACATGCGTGTGC"}, "B2": {"name": "NACBS (single NACRS with flanks, erd1 promoter) (dsDNA)", "DNA 1": "AGCTTGTGCAACTTGAGCTCTTCTTCTGTAACACGCATGTGTTGCGTTTGGTTTTTAATTTATTTGCCA", "DNA 2": "TGGCAAATAAATTAAAAACCAAACGCAACACATGCGTGTTACAGAAGAAGAGCTCAAGTTGCACAAGCT"}, "B3": {"name": "mutated NACBS (CATGTG to AAAAAA, AACA to TTAA) (dsDNA)", "DNA 1": "B2 DNA 1 with A30T, A31T, C32A, C36A, T38A, G39A, T40A, G41A", "DNA 2": "B2 DNA 2 with C29T, A30T, C31T, A32T, G34T, G38T, T39A, T40A"}, "B4": {"name": "pBSK+ MCS (dsDNA)", "DNA 1": "GGGGATCCACTAGTTCTAGAGCGGCCGCCA", "DNA 2": "TGGCGGCCGCTCTAGAACTAGTGGATCCCC"}},
  "key": {"AlNAC4 [1]": {"molecular_target": "T1, AlNAC4 (Aeluropus lagopoides, UniProt A0A220T1T2 1-312)", "T1 sequence": "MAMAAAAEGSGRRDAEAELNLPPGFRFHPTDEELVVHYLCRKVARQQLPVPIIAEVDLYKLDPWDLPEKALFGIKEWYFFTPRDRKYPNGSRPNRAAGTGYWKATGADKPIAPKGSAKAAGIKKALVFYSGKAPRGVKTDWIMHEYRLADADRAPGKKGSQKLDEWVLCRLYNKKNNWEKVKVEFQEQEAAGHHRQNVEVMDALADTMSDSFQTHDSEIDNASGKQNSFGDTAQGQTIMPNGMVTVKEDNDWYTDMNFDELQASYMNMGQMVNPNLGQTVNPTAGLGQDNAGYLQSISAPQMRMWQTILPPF", "assay": "EMSA; 80 ng probe, 300-2400 ng protein; binding increases with protein; 15 mM HEPES, 35 mM KCl, 1 mM EDTA pH 8.0, 1 mM DTT, 1 mM MgCl2, 6% glycerol, 4 ug glycogen, 25 ul, room temperature 20 min; 10% acrylamide 0.5x TBE gel, ethidium bromide stain", "settings": "protein: recombinant, tags: 6xHis (pET-28a; not thrombin-cleaved), chain copies: 2"}, "AlNAC4 [2]": {"molecular_target": "T1, AlNAC4", "assay": "EMSA; data not shown; 15 mM HEPES, 35 mM KCl, 1 mM EDTA pH 8.0, 1 mM DTT, 1 mM MgCl2, 6% glycerol, 4 ug glycogen, 25 ul, room temperature 20 min; 10% acrylamide 0.5x TBE gel, ethidium bromide stain", "settings": "protein: recombinant; tags: 6xHis (pET-28a; not thrombin-cleaved); chain copies: 2; blunt"}, "AlNAC4 [3]": {"molecular_target": "T1, AlNAC4", "assay": "EMSA; 15 mM HEPES, 35 mM KCl, 1 mM EDTA pH 8.0, 1 mM DTT, 1 mM MgCl2, 6% glycerol, 4 ug glycogen, 25 ul, room temperature 20 min; 10% acrylamide 0.5x TBE gel, ethidium bromide stain", "settings": "protein: recombinant; tags: 6xHis (pET-28a; not thrombin-cleaved); chain copies: 2; blunt"}},
  "note": "Where a chain is given by its changes, count along the chain named.",
  "data": [
    {"binder": "B1", "values": [
      {"measurement": "binding result", "setting": "AlNAC4 [1]; 5' overhangs 4 nt on both strands (GGCC, CTAG)", "value": "binds"}
    ]},
    {"binder": "B2", "values": [
      {"measurement": "binding result", "setting": "AlNAC4 [1]; blunt", "value": "binds"}
    ]},
    {"binder": "B3", "values": [
      {"measurement": "binding result", "setting": "AlNAC4 [2]", "value": "no binding"}
    ]},
    {"binder": "B4", "values": [
      {"measurement": "binding result", "setting": "AlNAC4 [3]", "value": "no binding"}
    ]}
  ]
}
